Laboratory results as given in the nanobody polyreactivity screen of Harvey et al. (2022).

Assay: yeast display, Sf9 membrane polyspecificity reagent, FACS + sequencing; frameworks hold sequencing errors
How it was run: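 Polyreactivity labels are assigned by the sorting gate from which each nanobody was recovered. The gates were low and high (top ~1%), set on anti-HA fluorescence for expression and streptavidin fluorescence for reagent binding. Before sorting, galactose-induced (36–48 hours) yeast display cells were stained for 1 hour at 4 °C with 10% biotinylated, detergent-solubilized Sf9 membrane reagent.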

Sequence | polyreactivity (PSR sort gate)
QVQLEESGGGLVQAGGSLRLSCAASGFTFRYYAMGRYRQAPGKVRELVAVISRTGGSTNFADSVKGRFTISRDNAKKTVYLQMNSLKPEDTAVYYCNAVARYQTKYRYEYWGQGTQETVSS | high polyreactivity
QVQLVESGGGLVQAGGSLRLSCAASGRIFRPYTMVWSRQAPGKERELVAAINSSGGRTYYADSVKGRFTISRDNAKNTVYLEMNSLKPEDTAVYYCAVGWVFYRASNMNYWGQGTQVTVSS | high polyreactivity
QVQLLESGGGLVQPGGSLRLSCAASGRIFRHSAMGWYRQAPGKERELVAAISGGGGRTYYADSVKGRFTISRDNAKLSVDLQMNSLKPEDTAVYYCAAYRSRHYYYWGHGTQVTVSS | high polyreactivity
QVQLVESGGGLVQAGGSLRLSCAASGRIFDENAMGWYRQAPGKERELVATISSSGVSTSYADSVKGRFTISRDNAKNTVYLQMNSLKPEDTAVYYCNAGYRRRYKFVYWGQGTQVTVSS | low polyreactivity
QVQHVESGGGLVQAGGSLRLSCAASGLTFHQYAMGWYRQAPGKERELVAAITGSGGSTYYADSVKGRVTISRDKAKNTVYLQMYSLKPEDTAVYYCAAKTYRRGGGYWGQGSQVTVSS | high polyreactivity
QVQLVETGGGLVQAGGSLRLSCAASGRTFWGHAMGWYRQAPRKERELVASISSRGSSTYYADSVKGRFTISRDNAKNTVYLQMNSLKPEDTAVYYCAARTHYFPWPWYVWDYDSWGQGTQVTVSS | low polyreactivity
QVQLVESGGGLVQAGGSLRVSCAASGSTLVFNAMGWYRQAPGKEREIVAAISKSGGSRYYADSVKGRFTISRDNAKNTVYLQMNSLKPEDTAVYYCAPDSGGPGYAMDYWGQGTQVTVSS | high polyreactivity
QVQLVESGGGLVHAGGSLRLSCAASGSIFVVYTMGWYIQAPGKERELVADISASGGRTYYADSVKGRFTISSDNAKNTVYLKMNRLKPEDTAVYYCARVWYSSYSSESYSDHDYWGQGTQGTVSS | high polyreactivity
QVQLVESGGGLVQAGGSLRLSCAASGSIFRIYAMGWYRQAPGKERELVAAISRGSTRTYYADSVKGRFTISRDNAKNTVYLQMNSLKPEDTAVYYCAKRGISPYGYWGQGTQVTVSS | high polyreactivity
QVQLVESGGGLVQAGGSLRLSCAASGSTFRYYDMGWYRQAPGKERELVADISSGGSTYYADSVKGRFTISRDNAKNTVYLQMNSLKPEDTAVYYCAAAYLSWLFRYDYWGQGTQVTVSS | high polyreactivity
QVQLVESGGGLVQAGGSLRLSCAASGSTFRWYAMGWYRQAPGKERELVAAISGSGGSTYYADSVKGRFTISRDNAKKTVYLQMNSLKPEDTAVYYCNKRYFTYLGEHTVGYWGQGTQVTVSS | high polyreactivity
QVQLVESGGGLVQAGGSLPLSCAASGRIFNGYAMGGYIQAPGKERELVAAICWRGGRTYYADSVKGRFTISRDNAMNTVYLQRNSLKAEDTAVYYCNKDLPPQGQLRNMYYWGQGTIVTVSS | high polyreactivity
QVHLVESGGGLVQAGGSLRLSCAASGFTFVSYAMGWYRQAPGKERELVDDINQSGGSTYYADSLKGRFTISRDNAKNTVYLQMNSQKPEDTAVYYCARDGDLWYYKGYGTLFDYWGQGTQVTVSS | low polyreactivity
QVQLVESGGGLVQAGGSLRLSCAASGNISYTYVMGWSRQAPGKHRELVAAITWSTGSTYYADSVKGRFTISRDNAKNTVYLQMNSLKPEDTAVYYCAVDGGEFSSYGYWGQGTQVTVSS | low polyreactivity
QVQLVESGGGLVQAGGSLRLSCAASGSIFRGNAMGWYRQAPGKERELVAAISGSAGRTYYADSVKGRFTISRDNAKNTVYLQMNSLKPEDTAVYYCAADSFKGYDYWGQGTQVTVSS | high polyreactivity
QVQLLESGGGLVQAGGSLRLSCAPSGRTFARYDMAWYTQAPGKERELVAVISRTGSTYYADSVKGSFTISRDNEKITVYLLMNSLKPEDTAVYYCATVYVYWGQGTQVTVSS | high polyreactivity

Sequence | polyreactivity (PSR sort gate)
QVQLVESGGGLVQAGGSLRLSCAASGYTFWAYTMGWSRQAPGKERELVAAISFSGGSTYYADSVKGRFTISRDNAKNTVYLLMNSLKPEDTAVYYCAADYLIEMDYWGQGTQVTVSS | low polyreactivity
QVQLVESGGRLVQAGGSLRLSCAASGRIFSINVMGWYRHAPGKERELVAAISKRGGSTYYADSVKGRFTISRDNAKNTVYLQMNSLKPEDTAVFYCAARRHYTYGNGPSRGGQMDYWGQGTQVTVSS | high polyreactivity
QVQLVESGGGLVQAGGSLRLSCAASGRTFDRNAMGWYRQAPGKERELVAAITSRGGRTYYADSVKGRFTISRDNAKNTVYLQMNSLKPEDTAVYYCNAARGWGYDSWGQGTQVTVSS | high polyreactivity
QVQLVESGGGLVQAGGSLRLSCAASGRIFGVYAMGWYRQAPGKERELVAAIDSSDGSTYYADSVKGRFTISRDNAKNTVYLQMNSLKPEDTAVYYCAADTPAAVYGYDYWGQGTQVTVSS | low polyreactivity
QVQLVESGGGLLQAGGSLRLSCADSGRTFCPNVMGCYRQAPGKERELVAAITWGDASTYYADSVKGRFTISRDNAKNTVYLQMNCLKPEDTAVYYCGAKSSTRGDYWGQGTQVTVSS | low polyreactivity
QVQLVESGGGLVQAGGSLRLSCAASGSIFGYYAMGWYRQAPGKERELVAAISGSGGSTYYADSVKGRFTISRDYAKNTVYLQMNSLKPEDTAVYYCAARWQWLNGYYYWGQGTHVTVSS | high polyreactivity
QVQLVESGGGLVQAGGSLRLSCAASGFIFTFYALGWYRQAPGKEREFVASIDWGDGSTYYADSVKGRFTISRDNAKNTVYLQMNSLKPEDTAVYYCAHDYDGYVWDTEYDYWGQGTQVTVSS | low polyreactivity
QVQLVESGGGLVQAGGRLRLSCAASGRTFARYDRGWYRQAPGKELVLVAGMNGDGGSTNYADSVKGRFTISRDNAKNSVYLQMNSLKPEDTAVYYCNVVQEDRTLHVSIKQLSDHWGQGTQVTVSS | low polyreactivity
QVQLVESGGGLVQAGGSLRLICAASGSIFVLNAMGWYRQAPGKERELVAAITSGGSTYYADSVKGRFTISRDNAKNTVYLQMISLKPEDTAVYYCNALDLSPSYKYDYWGQGTQVTVSS | low polyreactivity
QVQLVESGGGLVQAGGSLRLSCAASGFIFFGEYVRGWYRQAPRKEREFVAAITDSDGSTYYADSVKGRFTISRDNAKNTVYLQMNSLKPEDTAVYYCAAERVYSDIDYWGKGTQVTVSS | low polyreactivity
QVQLVESGGGLVLAGGSLRLSCAASGIIFKIYAMGWFRQAPGKEMELVADITSVGSTKYADSVKGRFTISRDNAKNTVYLQMNSLKPEDTAVYYCATDWVTSHDDDYWGQGTQVTVSS | low polyreactivity
QVQLVESGGGLVQAGGSLRLSCAASGSTFSKNAMGWNRQAPGKERELFAAIRSRGGSTYYADSVKGRFTISRDNAKNTVYLQMNSLKPEDTAVYYCNKVRAYECDYWGQGTKVTVSS | high polyreactivity
QVQLVESGGGLVQAGGSLRLSCAASGSIFYAYAMRWYRQAPGKERELVAVINSGGSTYYADSVKGRFTISRDNAKNTVYLQMHSLKPEDTAVYYCNATQDRGKYDYPPRGRGYYYWGQGTQVTVSS | high polyreactivity
QVQLVESGGGLVQAGGSLRLSCAATGSTFDRNAMVWYRLAPGKERELVAAISWRGGRTYYADSVKGRFTISRDNAKNTVYLQMNSLKPEDTAVYYCSAKGPGIRSVEGYDYWGQGTQVTVSS | low polyreactivity
QVQLVESGGGLVQAGGSLRLSCAASGSTFYFYTMGWYRQAPGKERELVAAISQDGGSTYYADSVKGRFTISRDNAKNTVYLQMNSLKPEDTAVYYCAADKRGTVYLSSFWMDYWGQGTQVTVSS | low polyreactivity
QVQLVESGGGLDQAGGSLRLSCAASGLIFRRYAMGWYRQAPGKEREFVAAIRWNGGTTYYADSVKGRFTISRDNAKYTVYLQMNSLKPEDTAVYYCAARVYPAYPRGYDYWGQGTQVTVSS | high polyreactivity
